Data on two molecules can be found in publication PMC12407373, “Kindlin Regulates Mechanosensitive Activation and Adhesion Assembly of Integrin beta6” (Advanced Science, 2025).

In general, Kd refers to the constant that tells how readily two partners part at equilibrium.

Where no end group is shown, it is not given here.

This test concerns the target T1, full-length mouse kindlin2 (mouse, UniProt Q8CIB5 1-680).
T1 construct: full-length mouse kindlin2, cloned into pET28a with 10xHis-SUMO tag and HRV-3C site at the N-terminal; also called kindlin2 protein; source: Escherichia coli Rosetta(DE3), purified (IMAC, tag cleavage by HRV 3C, SEC); not shown: 10xHis, N-terminal, cleaved; SUMO, N-terminal, cleaved
T1 sequence (looked up): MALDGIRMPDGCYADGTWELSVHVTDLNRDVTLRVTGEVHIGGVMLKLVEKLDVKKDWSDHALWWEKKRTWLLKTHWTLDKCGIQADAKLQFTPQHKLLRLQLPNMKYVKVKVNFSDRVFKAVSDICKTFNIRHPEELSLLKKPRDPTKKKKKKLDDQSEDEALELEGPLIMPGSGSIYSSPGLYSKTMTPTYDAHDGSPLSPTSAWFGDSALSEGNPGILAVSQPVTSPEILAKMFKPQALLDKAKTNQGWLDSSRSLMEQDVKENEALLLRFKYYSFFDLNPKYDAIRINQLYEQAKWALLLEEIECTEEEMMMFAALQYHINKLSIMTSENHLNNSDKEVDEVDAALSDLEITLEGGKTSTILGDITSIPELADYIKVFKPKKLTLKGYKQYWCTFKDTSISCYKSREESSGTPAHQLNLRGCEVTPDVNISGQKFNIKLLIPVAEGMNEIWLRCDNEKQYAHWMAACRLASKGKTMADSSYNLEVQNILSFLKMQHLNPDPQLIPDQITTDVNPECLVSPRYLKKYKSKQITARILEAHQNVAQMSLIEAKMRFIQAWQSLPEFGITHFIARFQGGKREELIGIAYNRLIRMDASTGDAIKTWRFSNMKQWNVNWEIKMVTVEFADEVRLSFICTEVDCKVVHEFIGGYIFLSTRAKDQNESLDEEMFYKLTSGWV
Nature of the test: MST; Monolith NT.115; FITC-labeled tail peptide constant at 10 µM, kindlin2 titrated 42.5 to 0.0013 µM; 20 mM Tris pH 7.5, 200 mM sodium chloride, 1 mM TCEP, 5% glycerol; 10-20% LED power; Kd model. The settings on record: both partners purified.

B1: FITC-labeled cytoplasmic tail of wildtype integrin β1 (peptide, UniProt P05556 752-798, looked up)
peptide: KLLMIIHDRREFAKFEKEKMNAKWDTGENPIYKSAVTTVVNPKYEGK
modifications: also: FITC label, position not given here
notes: cytoplasmic tail of integrin β1; also called cytoplasmic tail of integrin β1; integrin β tail peptide; source: synthetic peptide, synthesized by Sangon Biotech
Molecule B1 gave a Kd of 0.42 µM.

B2: FITC-labeled cytoplasmic tail of wildtype integrin β6 (peptide, UniProt P18564 731-788, looked up)
peptide: KLLVSFHDRKEVAKFEAERSKAKWQTGTNPLYRGSTSTFKNVTYKHREKQKVDLSTDC
modifications: also: FITC label, position not given here
notes: cytoplasmic tail of integrin β6; also called cytoplasmic tail of integrin β6; integrin β tail peptide; source: synthetic peptide, synthesized by Sangon Biotech
For the molecule B2, the Kd came out at 26.6 µM.
